Test [1] has as its target peripheral lymph node addressin (PNAd) expressed on CHO cells. Nature of the test: cell-based ELISA on fixed CHO-PNAd cells, HRP-conjugated secondary antibody, TMB, OD450. A general note: ELISA stands for enzyme-linked immunosorbent assay.
For test [2] the target is unchanged. Nature of the test: cell-based ELISA on fixed CHO-PNAd cells, antibody titrated 1 ng/ml to 300 ug/ml, fitted curve.
Test [3] has the same target. Nature of the test: cell-based ELISA on fixed CHO-PNAd cells; compared with the reference MECA79.

As to MECA79 monoclonal antibody, the EC50 (read off the curve) (usually the concentration at which the effect is half-maximal) in test [1] turned out to be 5 µg/mL. In addition, the Kd (usually the concentration at which binding is half-saturated) in test [2] was 1.41 nM.

B1: MHA112 monoclonal antibody (mAb) (antibody, mouse IgM, V domains shown)
VH: QVQLKESGPGLVAPSQSLSITCTVSGFSLTSYGVDWVRQPPGKGLEWLGVIWGGGSTNYNSALMSRLSISKDNSKSQVFLKMNSLQTDDTAMYYCAKHSKGGYFDVWGTGTTVTVSS
VL: EIVLTQSPAITAASLGQKVTITCSASSSVSYMHWYQQKSGTSPKPWIYEISKLASGVPARFSGSGSGTSYSLTISSMEAEDAAIYYCQQWNYPLITFGAGTKLELK
B1: the binding affinity higher than MECA79 (percent) in test [3] was 30%. This molecule also returned an EC50 (read off the curve) in test [1] of 4 µg/mL. In addition, in test [2], the Kd stood at 0.97 nM.

These data come from patent publication US20210284740A1.
